Drawing on patent KR20200110551A, this text covers VNT titer and ELISA screening plate (O.D 450nm) for one molecule.

Test [1] deals with FMDV 혈청형 O (진천주) (Foot and Mouth Disease Virus serotype O (Jincheon strain)). Description: cell-based or functional assay.
For test [2] the target is unchanged.

B1: 단클론항체 8B87 (antibody, V domains shown)
VH: KKPGETVKISCKASGYTFTNYGVSWVKQVPGKGLKWMGWINTNTGKPAYADDFKGRFAFYLDTSASTAYLQISNLKNEDEATYFCVIYHDYLWFAYWGQGTLITVSA
VL: NIVLTQSPASLAVSLGQRATISCRASNSVDTYGNSFMHWYQQRPGQPPKLLIFLASDLESGVPGRFRGSGSRTDFTLTIDPVEADDAATYYCQQNYADPWTFGGGTKLEIK
Regarding B1, the VNT titer in test [1] is 64. For the same molecule, the ELISA screening plate (O.D 450nm) in test [2] was found to be 2.23 O.D 450nm.
